The record followed here is publication doi:10.1101/2020.10.15.341636 (bioRxiv, 2020).

Assay [1] has as its target T1, SARS-CoV-2 prefusion S ectodomain (BEI NR52394) (SARS-CoV-2 Wuhan-Hu-1, UniProt P0DTC2, stabilised). Kind of assay: BLI.
Assay [2] concerns the target T1, SARS-CoV-2 prefusion S ectodomain (BEI …). Kind of assay: cryo-EM structure.
Assay [3] shares this target. Kind of assay: cell-based or functional assay.

B1: mAb 52 IgG (antibody, V domains shown)
VH: QVQLVQSGAEVKKPGSSVKVSCKASGYTFTSYGISWVRQAPGQGLEWMGGIIPMFGTTNYAQKFQGRVTITADKSTSTAYMELSSLRSEDTAVYYCARDRGDTIDYWGQGTLVTVSS
VL: DIQMTQSPSSLSASVGDRVTITCRASQGISNNLNWYQQKPGKAPKLLIYAASSLESGVPSRFSGSGSGTDFTLTISSLQPEDFATYYCQQGNGFPLTFGPGTKVDIK
B1: the binding result in assay [1] is reported as “binds”.

B2: 52 Multabody (other)
VH: B1 VH
VL: B1 VL
Turning to B2, the binding result in assay [1] is “binds”.

B3: mAb 324 IgG (antibody, V domains shown)
VH: QVQLVQSGAEVKKPGASVKVSCKASGGTFNNYGISWVRQAPGQGLEWMGWMNPNSGNTGYAQKFQGRVTMTRDTSTSTVYMELSSLRSEDTAVYYCARVGDYGDYIVSPFDLWGRGTLVTVSS
VL: DIQMTQSPSSLSASVGDRVTITCRASQSITTYLNWYQQKPGKAPKLLIYDASNLETGVPSRFSGSGSGTDFTLTISSLQPEDFATYYCQQSYSTPPTFGQGTKVEIK
As for B3, in assay [1], the binding result was “binds”.

B4: Fab 324 (Fab, V domains shown)
VH: B3 VH
VL: B3 VL
For B4, in assay [2], the binding result was “binds”.

B5: 324 Multabody (other)
VH: B3 VH
VL: B3 VL
As for B5, in assay [1], the binding result is “binds”.

B6: mAb 298 IgG (antibody, V domains shown)
VH: QVQLVQSGAEVKKPGASVKVSCKASGGTFSTYGISWVRQAPGQGLEWMGWISPNSGGTDLAQKFQGRVTMTRDTSTSTVYMELSSLRSEDTAVYYCASDPRDDIAGGYWGQGTLVTVSS
VL: not shown
As to B6, in assay [3], the “IC50 of neutralization of SARS-CoV-2 pseudovirus (PsV)” value was ~30 µg/mL.

B7: mAb 236 IgG (antibody, V domains shown)
VH: QVQLVQSGAEVKKPGASVKVSCKASGGTFTSYGINWVRQAPGQGLEWMGWMNPNSGNTGYAQKFQGRVTMTRDTSTSTVYMELSSLRSEDTAVYYCASRGIQLLPRGMDVWGQGTTVTVSS
VL: not shown
For B7, the binding result in assay [1] is recorded as “binds”.
